Test results: the supplement of paper PMC10724198
± gives the standard deviation of the averaged measurements.

Tested on: Saccharomyces cerevisiae
Assay: protein stability index of tFT-peptide fusion (C-terminal peptide) (PSI (0-1 scale)); higher = more stable (slower turnover)
Conditions: genetic background: wild type; temperature: 30 C
Experimental: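 MPS profiling in S. cerevisiae of the tFT-X12 degron library: putative degron peptides plus stable controls, 12 aa, fused to the C-terminus of a sfGFP-mCherry timer. Cells are FACS-sorted into 8 mCherry/sfGFP bins and deep-sequenced. PSI runs from 0 (unstable) to 1 (stable). Backgrounds are wild type, das1Δ and doa10Δ at 30 °C, and wild type, das1Δ, cdc34-1 and cdc53-1 at 37 °C; 2-3 technical replicates each.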
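Also: PSI is a weighted mean of sequencing reads over stability bins, variants kept only with over 10 reads, mCherry proximal and sfGFP distal, peptide attached via GGGS linker.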

Sequence	protein stability index
EVPVIGVLRSLL	0.78 ± 0.023
EVSIISECKVAS	0.175 ± 0.014
FALAYFFVLKSF	0.0862 ± 0.02
FARYLRSMYILF	0.343 ± 0.019
FAVLWFLYWCSW	0.261 ± 0.044
FCCSFFLCVCFV	0.276 ± 0.034
FCLSPILLLRFL	0.174 ± 0.024
FCRPCCLIVFVV	0.128 ± 0.019
FFCRARHRLYVA	0.105 ± 0.0095
FFFFLFRSIFLS	0.118 ± 0.012
FFFFSMLIFCAV	0.136 ± 0.0094
FFFLLPRLFRCV	0.449 ± 0.012
FFLFCWFVPRFS	0.351 ± 0.027
FFLLCFMMCVLL	0.219 ± 0.032
FFLPIFFSIFLS	0.108 ± 0.022
FFLSAFFFFFLF	0.291 ± 0.027
FFMLLYSFFTFD	0.375 ± 0.035
FFSSSASVLFII	0.198 ± 0.016
FFTLLLFLFFSV	0.293 ± 0.03
FFVACCSFVFLL	0.203 ± 0.022
FGFGSSRFLLCL	0.384 ± 0.028
FGFLVVLFDCVR	0.291 ± 0.028
FGVFLLWCVLLL	0.191 ± 0.013
FIAVSLSVFLVF	0.181 ± 0.024
FIFLFVALFCVF	0.29 ± 0.021
FILIFLGILSCC	0.325 ± 0.025

Sequence	protein stability index
FIYSVFFYSYWF	0.272 ± 0.013
FLFLESFLFFYL	0.411 ± 0.017
FLFVFLGVYGHV	0.288 ± 0.029
FLGPYTPGMYLA	0.258 ± 0.019
FLISVRFVLILN	0.135 ± 0.0052
FLLFLPLLFFFL	0.377 ± 0.018
FLLHLVAHFSFL	0.472 ± 0.017
FLLIVSSVSFYL	0.207 ± 0.021
FLLLSCLVRRSF	0.429 ± 0.0061
FLRFVFSFTFFV	0.24 ± 0.028
FLVGVARCPFLV	0.254 ± 0.034
FLVLLFCLFFCF	0.43 ± 0.033
FMCGWRMLVSVS	0.0292 ± 0.011
FPGLPVFFPPPL	0.703 ± 0.011
FPRLERVAVMAR	0.167 ± 0.025
FQILLRFFRSVA	0.206 ± 0.029
FRAKRTVFQRNS	0.289 ± 0.0073
FRFFRPSFRFFC	0.118 ± 0.0071
FRFPCSILMTLL	0.197 ± 0.013
FRQEVLHWRQHS	0.145 ± 0.035
FRWLAFALLFGC	0.166 ± 0.018
FSARPFLYSFRP	0.654 ± 0.0083
FSCEFKMSCLKS	0.488 ± 0.029
FSIFFIIEFVGT	0.187 ± 0.028
FSSYLSALLIVV	0.167 ± 0.029
FSYVGFFFLLGF	0.352 ± 0.025

Sequence	protein stability index
FTYCIVFFFSRL	0.391 ± 0.03
FTYFFFVRVLLV	0.118 ± 0.0091
FVCSSVFVVLLF	0.294 ± 0.054
FVFLCLLCISSF	0.2 ± 0.03
FVGCFVFYLFLL	0.362 ± 0.035
FVRVFMASIIWC	0.376 ± 0.036
FVVFAFGVLPVK	0.388 ± 0.039
FVVRVVCRLGFF	0.215 ± 0.012
FWFSFLLSGVCC	0.268 ± 0.022
FWFVSVFIVFFC	0.164 ± 0.034
FYLPGLFFVRFR	0.272 ± 0.026
FYVIFRRACLSV	0.195 ± 0.0079
GACGLGMLIFIV	0.29 ± 0.02
GAPIFSSFLLFC	0.31 ± 0.028
GARCFGFFCFLV	0.115 ± 0.017
GCIFGNVVFVRV	0.433 ± 0.022
GCIMHLTIYVRD	0.26 ± 0.028
GCPRSWSFNIYV	0.199 ± 0.022
GCRSLRLWLTFS	0.312 ± 0.015
GCVVVLIPVVSA	0.266 ± 0.015
GEAYVYLFVYSC	0.173 ± 0.017
GEWCLPLRLVVY	0.172 ± 0.02
GFCVRIFHGFLH	0.251 ± 0.04
GFDVFWLWVVVA	0.103 ± 0.027
GFRMACYIRVLS	0.182 ± 0.026
GFSFVCFSPFLF	0.41 ± 0.02

Same assay, conditions: genetic background: wild type; temperature: 37 C

Sequence	protein stability index
EVPVIGVLRSLL	0.847 ± 0.017
EVSIISECKVAS	0.281 ± 0.015
FALAYFFVLKSF	0.1132 ± 0.001
FARYLRSMYILF	0.462 ± 0.0051
FAVLWFLYWCSW	0.387 ± 0.0054
FCCSFFLCVCFV	0.348 ± 0.013
FCLSPILLLRFL	0.225 ± 0.012
FCRPCCLIVFVV	0.126 ± 0.019
FFCRARHRLYVA	0.152 ± 0.061
FFFFLFRSIFLS	0.138 ± 0.011
FFFFSMLIFCAV	0.192 ± 0.0081
FFFLLPRLFRCV	0.5611 ± 0.0017
FFLFCWFVPRFS	0.498 ± 0.016
FFLLCFMMCVLL	0.348 ± 0.01
FFLPIFFSIFLS	0.155 ± 0.0049
FFLSAFFFFFLF	0.36913 ± 0.00026
FFMLLYSFFTFD	0.506 ± 0.024
FFSSSASVLFII	0.394 ± 0.039
FFTLLLFLFFSV	0.411 ± 0.022
FFVACCSFVFLL	0.316 ± 0.019
FGFGSSRFLLCL	0.604 ± 0.026
FGFLVVLFDCVR	0.464 ± 0.0057
FGVFLLWCVLLL	0.352 ± 0.075
FIAVSLSVFLVF	0.287 ± 0.003
FIFLFVALFCVF	0.365 ± 0.036
FILIFLGILSCC	0.4149 ± 0.0031

Sequence	protein stability index
FIYSVFFYSYWF	0.429 ± 0.017
FLFLESFLFFYL	0.525 ± 0.055
FLFVFLGVYGHV	0.46 ± 0.0054
FLGPYTPGMYLA	0.482 ± 0.0086
FLISVRFVLILN	0.208 ± 0.0085
FLLFLPLLFFFL	0.4384 ± 0.0031
FLLHLVAHFSFL	0.503 ± 0.003
FLLIVSSVSFYL	0.346 ± 0.0035
FLLLSCLVRRSF	0.549 ± 0.018
FLRFVFSFTFFV	0.3144 ± 0.0024
FLVGVARCPFLV	0.401 ± 0.012
FLVLLFCLFFCF	0.4952 ± 0.0042
FMCGWRMLVSVS	0.045 ± 0.019
FPGLPVFFPPPL	0.731 ± 0.012
FPRLERVAVMAR	0.221 ± 0.031
FQILLRFFRSVA	0.4 ± 0.017
FRAKRTVFQRNS	0.526 ± 0.021
FRFFRPSFRFFC	0.221 ± 0.033
FRFPCSILMTLL	0.297 ± 0.036
FRQEVLHWRQHS	0.332 ± 0.015
FRWLAFALLFGC	0.348 ± 0.0068
FSARPFLYSFRP	0.711 ± 0.0089
FSCEFKMSCLKS	0.605 ± 0.017
FSIFFIIEFVGT	0.324 ± 0.022
FSSYLSALLIVV	0.214 ± 0.019
FSYVGFFFLLGF	0.467 ± 0.0053

Sequence	protein stability index
FTYCIVFFFSRL	0.494 ± 0.021
FTYFFFVRVLLV	0.129 ± 0.0084
FVCSSVFVVLLF	0.464 ± 0.026
FVFLCLLCISSF	0.3152 ± 0.0017
FVGCFVFYLFLL	0.458 ± 0.027
FVRVFMASIIWC	0.518 ± 0.013
FVVFAFGVLPVK	0.514 ± 0.0089
FVVRVVCRLGFF	0.3396 ± 0.0013
FWFSFLLSGVCC	0.266 ± 0.016
FWFVSVFIVFFC	0.279 ± 0.018
FYLPGLFFVRFR	0.29 ± 0.04
FYVIFRRACLSV	0.299 ± 0.0099
GACGLGMLIFIV	0.511 ± 0.017
GAPIFSSFLLFC	0.5425 ± 0.0023
GARCFGFFCFLV	0.169 ± 0.0064
GCIFGNVVFVRV	0.611 ± 0.0075
GCIMHLTIYVRD	0.4088 ± 0.0016
GCPRSWSFNIYV	0.463 ± 0.013
GCRSLRLWLTFS	0.551 ± 0.024
GCVVVLIPVVSA	0.381 ± 0.0088
GEAYVYLFVYSC	0.387 ± 0.0098
GEWCLPLRLVVY	0.174 ± 0.012
GFCVRIFHGFLH	0.501 ± 0.014
GFDVFWLWVVVA	0.0966 ± 0.015
GFRMACYIRVLS	0.286 ± 0.02
GFSFVCFSPFLF	0.5401 ± 0.001
